From patent US20120046217A1 (SUNGKYUNKWAN UNIVERSITY FOUNDATION FOR CORPORATE …, published 2012)
Blank lines part the entries; values can stand above or below the binder they belong to.

Biological target: T1, Flag-TNFR1 (UniProt P19438 30-455, limits assumed)
T1 construct: whole, on cells; The receptor sat on the membrane of transfected HEK293 cells; not shown: Flag tag
T1 sequence (looked up): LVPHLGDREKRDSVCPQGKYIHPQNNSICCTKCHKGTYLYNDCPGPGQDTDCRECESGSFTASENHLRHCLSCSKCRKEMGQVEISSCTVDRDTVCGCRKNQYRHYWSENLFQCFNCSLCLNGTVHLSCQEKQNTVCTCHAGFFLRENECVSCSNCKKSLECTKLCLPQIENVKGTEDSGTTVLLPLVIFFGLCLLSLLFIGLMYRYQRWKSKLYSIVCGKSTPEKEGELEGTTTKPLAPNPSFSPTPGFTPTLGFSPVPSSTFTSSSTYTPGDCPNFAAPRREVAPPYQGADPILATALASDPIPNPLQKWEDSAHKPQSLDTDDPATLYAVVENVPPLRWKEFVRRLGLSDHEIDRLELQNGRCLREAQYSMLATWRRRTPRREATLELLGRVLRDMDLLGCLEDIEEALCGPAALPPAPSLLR
Assay: co-immunoprecipitation of truncated mutants co-transfected with TNFR1
Method: The cells were washed with RIPA buffer, and protein-A/G-agarose beads (Santa Cruz) were added in an amount of 20 μL/tube to perform immunoprecipitation. According to the molecular weights of the truncated mutants, […] 15% SDS-PAGE gel electrophoresis was carried out, followed by Western blotting with an Myc antibody (FIG. 9).

- binding result: no binding
B1: truncated mutant consisting of an IGFBP5 C-terminal domain (other)
chain: QGPCRRHMEASLQELKASPRMVPRAVYLPNCDRKGFYKRKQCKPSRGRKRGICWCVDKYGMKLPGMEYVDGDFQCHTFDSSNVE
notes: not shown: Myc tag from vector pSecTaq2/Hygro A

- binding result: no binding
B2: truncated mutant consisting of an IGFBP5 N-terminal domain (other)
chain: LGSFVHCEPCDEKALSMCPPSPLGCELVKEPGCGCCMTCALAEGQSCGVYTERCAQGLRCLPRQDEEKPLHALLHGRGVC
notes: as for B1
